Measurements reported in PMC11952846, “The sterol-regulating human ARV1 binds cholesterol and phospholipids through its conserved ARV1 homology domain” (The Journal of Biological Chemistry, 2025).

T1: 6XHIS-ARV1 (full-length human ARV1, N-terminal 6XHIS tag) (human, UniProt Q9H2C2 1-271)
T1 construct: human ARV1, 271 amino acids, full length, expressed from pET-28a(+)-6XHIS-ARV1; also called hARV1; not shown: 6XHIS, N-terminal, kept
T1 sequence (looked up): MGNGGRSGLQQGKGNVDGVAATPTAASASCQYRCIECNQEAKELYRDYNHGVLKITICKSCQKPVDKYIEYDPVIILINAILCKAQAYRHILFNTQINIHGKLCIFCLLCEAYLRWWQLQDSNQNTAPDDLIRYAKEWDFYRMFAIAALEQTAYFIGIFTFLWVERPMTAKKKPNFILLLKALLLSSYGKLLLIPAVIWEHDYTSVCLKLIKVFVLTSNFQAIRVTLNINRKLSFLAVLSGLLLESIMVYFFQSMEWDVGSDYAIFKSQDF


Columns and labels:
[1] = target: T1, 6XHIS-ARV1 (full-length human ARV1, …); assay: far-Western, overlay or dot blot; GST, GST-ARV1 truncations and 6XHIS-ARV1 dotted onto nitrocellulose, incubated with 6XHIS-ARV1 protein, probed with anti-6XHIS (and anti-GST) antibodies; conditions: both partners purified
[2] = target: the molecule itself; assay: sucrose density gradient centrifugation; 2.5 to 25% sucrose gradient in PBS, 132,000g for 19 h; fractions by SDS-PAGE and western with anti-ARV1; markers ovalbumin (50 kDa), bovine serum albumin (77 kDa), phosphorylase (103 kDa)

| binding result [1] | Binder | stoichiometry N [2] |
| --- | --- | --- |
| binds | GST-ARV1-N90 (domain or fragment, human, UniProt Q9H2C2 1-90, looked up, human ARV1, amino-terminal 90 amino acids, expressed from pGEX-4T1-GST-N90; also called GST-N90; source: E. coli BL21, purified (glutathione beads); not shown: GST, N-terminal, kept) MGNGGRSGLQQGKGNVDGVAATPTAASASCQYRCIECNQEAKELYRDYNHGVLKITICKSCQKPVDKYIEYDPVIILINAILCKAQAYRH | – |
| – | E. coli expressed purified full-length ARV1 (sucrose density gradient) (natural protein, human, UniProt Q9H2C2 1-271, looked up, human ARV1, full length; detected with anti-ARV1 antibodies; also called purified ARV1; source: E. coli, purified) MGNGGRSGLQQGKGNVDGVAATPTAASASCQYRCIECNQEAKELYRDYNHGVLKITICKSCQKPVDKYIEYDPVIILINAILCKAQAYRHILFNTQINIHGKLCIFCLLCEAYLRWWQLQDSNQNTAPDDLIRYAKEWDFYRMFAIAALEQTAYFIGIFTFLWVERPMTAKKKPNFILLLKALLLSSYGKLLLIPAVIWEHDYTSVCLKLIKVFVLTSNFQAIRVTLNINRKLSFLAVLSGLLLESIMVYFFQSMEWDVGSDYAIFKSQDF | 2 |
